Measured values taken from US20100189722A1 (Boehringer Ingelheim, published 2010).

T1: CD37 antigen (cellular CD37 on Ramos Burkitt lymphoma cells; also on RPMI 8226 multiple myeloma cells) (human, UniProt P11049 1-281)
T1 sequence (looked up): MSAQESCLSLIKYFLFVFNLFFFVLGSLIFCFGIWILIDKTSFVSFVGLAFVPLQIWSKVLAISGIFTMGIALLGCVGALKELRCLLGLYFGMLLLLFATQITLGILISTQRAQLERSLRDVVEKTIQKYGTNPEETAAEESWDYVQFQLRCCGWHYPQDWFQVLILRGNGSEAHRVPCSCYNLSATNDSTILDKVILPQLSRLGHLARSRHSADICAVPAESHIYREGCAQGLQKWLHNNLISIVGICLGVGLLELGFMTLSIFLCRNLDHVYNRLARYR


Biological target: T1, CD37 antigen (cellular CD37 on Ramos …)
Assay: cell-based or functional assay

Binder | ADCC EC50 on RPMI 8226 multiple myeloma cells [ng/mL]
Fc-engineered chimeric anti-CD37 antibody A2 (S239D/I332E) (antibody, human IgG1, kappa) heavy: not shown light: DIQMTQSPASLSASVGETVTITCRTSENVYSYLAWYQQKQGKSPQLLVSFAKTLAEGVPSRFSGSGSGTQFSLKISSLQPEDSGSYFCQHHSDNPWTFGGGTELEIKRTVAAPSVFIFPPSDEQLKSGTASVVCLLNNFYPREAKVQWKVDNALQSGNSQESVTEQDSKDSTYSLSSTLTLSKADYEKHKVYACEVTHQGLSSPVTKSFNRGEC | ~25
Fc-engineered humanized anti-CD37 antibody B2 (S239D/I332E) (antibody, human IgG1, kappa, V domains shown) VH: AVQLVQSGAEVKKPGSSVKVSCKASGYSFTGYNMNWVRQAPGQGLEWMGNIDPYYGGTTYNRKFKGRVTLTVDKSSSTAYMELSSLRSEDTAVYYCARSVGPMDYWGQGTLVTVSS VL: DIQMTQSPSSLSASVGDRVTITCRTSENVYSYLAWYQQKPGKAPKLLVSFAKTLAEGVPSRFSGSGSGTDFTLTISSLQPEDFATYFCQHHSDNPWTFGQGTKVEIKR | ~25
